The text below walks through data of patent publication US20190185531A1 (MIT, published 2019).

The target in experiment [1] is T1, human Bfl-1 (c-myc-tagged) (human, UniProt Q16548 1-151, limits assumed).
T1 construct: c-myc-tagged in the fluorescence polarization and yeast-display assays; also called c-myc-Bfl-1; Myc-tagged Bfl-1; not shown: c-myc tag
T1 sequence (looked up): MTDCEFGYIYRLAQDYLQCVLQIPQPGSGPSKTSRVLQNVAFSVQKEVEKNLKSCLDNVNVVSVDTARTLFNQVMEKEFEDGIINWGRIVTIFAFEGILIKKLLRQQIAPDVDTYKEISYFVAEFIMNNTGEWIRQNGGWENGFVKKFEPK
The experiment can be described thus: fluorescence anisotropy competition (FIG. 1E). As to the method: (§1) Fluorescence polarization assays were performed in order to measure the binding abilities of the peptide constructs. […] C-myc-tagged receptors were used for all Bcl-2 homologs. Plates were mixed at room temperature for 3 h. Experiments were done in triplicate. Data were fit, as described for competition fluorescence anisotropy experiments in Foight et al. (Foight, G. W., Ryan, J. A., Gullá, S. V, Letai, A. & Keating, A. E. Designed BH3 Peptides with High Affinity and Specificity for Targeting Mcl-1 in Cells. ACS Chem. Biol. 9, 1962-8 (2014)), to a complete competitive binding model (equation 17 in Roehrl et al., 2004)(Roehrl, M. H. A., Wang, J. Y. & Wagner, G. A General Framework for Development and Data Analysis of Competitive High-Throughput Screens for Small-Molecule Inhibitors of Protein-Protein Interactions by Fluorescence Polarization^{†}. Biochemistry 43, 16056-16066 (2004)) using a Python script.

Experiment [2] addresses T2, human Mcl-1 (c-myc-tagged) (human, UniProt Q07820 172-327).
T2 construct: c-myc-tagged in the fluorescence polarization assay; also called c-myc-Mcl-1; not shown: c-myc tag
In words: assay not named in the sentence (competition fluorescence anisotropy elsewhere).

For experiment [3], the target named is T1, human Bfl-1 (c-myc-tagged). In words: X-ray crystal structure.
Protocol: To analyze the structural interactions between the peptides and Bfl-1, crystals of various complexes were grown and diffraction data collected. […] Crystals were seeded with drops containing parent crystals grown in higher ammonium sulfate (2.2-2.4 M) using a cat whisker. The protein was concentrated to 4 mg/ml in 20 mM Tris, 150 mM NaCl, 1% glycerol, 1 mM DTT, pH 8.0 and mixed with peptide at a 1:1 molar ratio. The hanging drops contained 1.5 μl of complex mixed with 1.5 μl of reservoir solution. Crystals were cryo-protected by transferring into 2.0 M lithium sulfate with 10% glycerol prior to flash freezing. Diffraction data were collected at the Advanced Photon Source at the Argonne National Laboratory, NE-CAT beamline 24ID-C. […] The peptide was built into the difference density from the rigid body refinement and the structure was refined with iterative rounds of refinement and model building using PHENIX and COOT.
For experiment [4], the target named is T1, human Bfl-1 (c-myc-tagged). In words: competition fluorescence anisotropy against fluoresceinated Bim BH3. As to the method: as §1

T2 sequence (Q07820 172-327 limits assumed): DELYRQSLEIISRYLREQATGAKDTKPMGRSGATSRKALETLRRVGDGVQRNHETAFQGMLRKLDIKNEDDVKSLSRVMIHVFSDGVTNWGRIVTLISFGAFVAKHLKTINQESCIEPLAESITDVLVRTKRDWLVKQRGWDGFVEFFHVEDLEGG

B1: FS2 (peptide)
peptide: Ac-QWVREIAAGLRRAADDVNAQVER-NH2
On to B1, for which, in experiment [1], the “fold increase in affinity against the chimera with smaller residues at G2, D3, A4 and E4” value came to 28.6 fold. Further, the “fold weaker than binding to Bfl-1” value in experiment [2] is more than 100 fold.

B2: PUMA/FS2 chimeric peptide: PUMA with smaller residues at positions G2, D3, A4 and E4 (peptide)
peptide: Ac-QWAREIGAGLRRAADDVNAQVER-NH2
notes: also called PUMA/FS2 chimeric peptides
As to B2, the binding result in experiment [1] is reported as “binds”.

B3: Puma BH3 peptide (23 residues) (peptide, UniProt Q9BXH1 132-154, looked up)
peptide: Ac-QWAREIGAQLRRMADDLNAQYER-NH2
notes: domain: BH3
As to B3, the binding result in experiment [3] is given as “binds”.

B4: PUMA/FS2 chimeric peptide: PUMA with larger residues at positions A2 and E2 (peptide)
peptide: Ac-QWVREIAAQLRRMADDLNAQYER-NH2
notes: as for B2
Take B4: the “fold increase in affinity against PUMA” value in experiment [1] was found to be 2.3 fold.

B5: FS1 (peptide)
peptide: Ac-QWVREIAAGLRLAADNVNAQLER-NH2
As to B5, the Ki in experiment [4] was 0.015 µM.
